We go through 3 substances from patent US20120034254A1.

Holding throughout (assay): SPR
(In general: Surface plasmon resonance follows binding to a sensor surface in real time, without labels.)

The target of experiment [1] is CD4 (UniProt P01730).
Experiment [2] concerns the target WT Hxbc2 core.
Experiment [3] deals with Full length Hxbc2 gp120.

The Kd is the equilibrium constant for the complex coming apart. Low readings indicate tighter binding, high ones weaker binding. Full length Hxbc2 gp120 had a Kd in experiment [1] of 6.29 nM.
The same measure, in the same setting: then WT Hxbc2 core, with 15.1 nM.
As for b12, the Kd in experiment [2] was determined as 2.67 nM; in experiment [3] it was 2.63 nM.
